In data set [1] the target is T1, protein tyrosine kinase-7 (PTK7) ((Jurkat T-cells)) (UniProt Q13308).
T1 sequence: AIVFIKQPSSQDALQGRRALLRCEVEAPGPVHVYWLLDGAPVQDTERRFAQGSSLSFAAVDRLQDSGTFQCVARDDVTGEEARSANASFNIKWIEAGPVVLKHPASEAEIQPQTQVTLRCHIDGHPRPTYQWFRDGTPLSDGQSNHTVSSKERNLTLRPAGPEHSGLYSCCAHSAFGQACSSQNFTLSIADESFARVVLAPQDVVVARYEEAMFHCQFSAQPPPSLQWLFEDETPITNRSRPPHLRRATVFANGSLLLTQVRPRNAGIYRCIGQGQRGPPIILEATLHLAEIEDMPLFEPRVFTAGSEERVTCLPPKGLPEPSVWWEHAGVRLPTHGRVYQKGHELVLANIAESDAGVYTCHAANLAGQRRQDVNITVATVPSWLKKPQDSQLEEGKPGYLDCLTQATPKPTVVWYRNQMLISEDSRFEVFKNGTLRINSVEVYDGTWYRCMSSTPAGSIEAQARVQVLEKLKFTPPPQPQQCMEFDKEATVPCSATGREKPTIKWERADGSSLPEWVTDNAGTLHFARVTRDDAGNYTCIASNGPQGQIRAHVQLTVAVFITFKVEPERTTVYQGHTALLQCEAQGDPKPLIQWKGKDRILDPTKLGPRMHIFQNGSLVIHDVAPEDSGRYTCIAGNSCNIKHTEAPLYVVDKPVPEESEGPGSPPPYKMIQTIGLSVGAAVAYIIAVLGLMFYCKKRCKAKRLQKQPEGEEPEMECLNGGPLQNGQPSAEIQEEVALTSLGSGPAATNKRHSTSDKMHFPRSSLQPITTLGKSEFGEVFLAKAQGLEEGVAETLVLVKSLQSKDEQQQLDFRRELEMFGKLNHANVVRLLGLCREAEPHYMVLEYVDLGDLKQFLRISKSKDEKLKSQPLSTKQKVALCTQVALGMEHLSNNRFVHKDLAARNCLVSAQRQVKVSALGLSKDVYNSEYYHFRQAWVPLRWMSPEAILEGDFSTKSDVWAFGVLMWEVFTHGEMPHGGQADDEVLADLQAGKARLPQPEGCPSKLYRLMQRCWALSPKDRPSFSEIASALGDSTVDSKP
Description: competition (AFM single-molecule force spectroscopy). The following applies: 1 uM free sgc8c blocks; 38.3% before block; Aptamer tips prepared and stored in PBS; fixed Jurkat T-cells on Cell-Tak glass; pulling speeds 500-24000 nm/s; measurement buffer, pH and temperature not …; scale: % residual binding probability of tip sgc8c.

In data set [2] the target is T1, protein tyrosine kinase-7 (PTK7) ((Jurkat T-cells)). In words: cited value. The following applies: 5' NH2 or 5' SH; Aptamer tips prepared and stored in PBS; fixed Jurkat T-cells on Cell-Tak glass; pulling speeds 500-24000 nm/s; measurement buffer, pH and temperature not …; cited from earlier work.
For data set [3] the target is unchanged. Description: AFM single-molecule force spectroscopy. Conditions: fixed Jurkat T-cells on Cell-Tak glass, pulling speeds 500-24000 nm/s, measurement buffer, pH and temperature not ….

In PMC5366180 one finds binding signal, Kd and binding signal (% binding probability) data, which are given here for three sequences.

For the sequence “ATCTAACTGCTGCGCCGCGAAAATACTGTACGGTTAGA [sgc8c (free)]”, the binding signal in data set [1] is 10.2.

As a reminder, the Kd is the constant that tells how readily two partners part at equilibrium. As for “ATCTAACTGCTGCGCCGCGAAAATACTGTACGGTTAGA [sgc8c (tip-tethered)]”, in data set [2], the Kd is 800 pM. Further, the binding signal (% binding probability) in data set [3] (koff 5.16 ± 0.19 s-1, x_beta 0.65 ± 0.01 Å, 5' NH2 or 5' SH, Aptamer tips prepared and stored in PBS) amounted to 38.3. In turn, “CACCGGGAGGATAGTTCGGTGGCTGTTCAGGGTCTCCTCCCGGTG [TDO5]” gave a binding signal (% binding probability) in data set [3] (background level, stated not to bind PTK7, 5' NH2, Aptamer tips prepared and stored in PBS) of 8.27.
